Our source for the Kd values is PMC7764042.

For one assay, the target named is S100P (Homo sapiens) (UniProt P25815). The settings on record: cited from earlier work.
Assay [1] deals with IFNAR2 ECD (Homo sapiens) (UniProt P48551). The settings on record: cited from earlier work.
In the next assay the target is Tag7 (Homo sapiens) (UniProt O75594). The settings on record: cited from earlier work.
The target in assay [2] is recombinant human interferon alfa-2b (human) (UniProt P01563). As to the kind of experiment: SPR; IFN-α immobilised by amine coupling; S100 proteins as analyte; 25 °C; 10 mM HEPES, 150 mM NaCl, 0.01% TWEEN 20, pH 7.4. Background: Surface plasmon resonance follows binding to a sensor surface in real time, without labels.

The Kd is the free concentration of one partner at which half of the binding sites on the other are occupied at equilibrium, for simple one-to-one binding.

Bounds are passed on as bounds.

Regarding IFN-β (from UniProt P01574), the values for the equilibrium dissociation constant (Kd) (with S100P (Homo sapiens); in assay [1]) were 0.3 nM and < 0.1 nM, respectively.

Take S100A4 (from UniProt P26447): the Kd in the assay with Tag7 (Homo sapiens) was 1 nM.

“recombinant human S100A1 (from UniProt P23297 2-94) (natural protein)”: in assay [2], the Kd is > 10000 nM.

Regarding “recombinant human S100A4 (from UniProt P26447 1-101) (natural protein)”, the dissociation constant Kd in assay [2] is > 10000 nM.
